# According to patent JP2012115243A (dated 2012):
# B1: 単鎖抗体MMPK9I−1 (scFv, V domains shown)
# VH: QVQLQQSGAELVRPGASVTLSCKASGYRFTDYEMHWVRQTPVHGLEWIGAIDPETGGTAYNQKFKGKATLTEDKSSSTAYMELRSLTSEDSAVYYCTTMITTALDYWGQGTSVTVSS
# VL: DVLMTQTPLSLPVSLGDQASISCRSSQSIVHSDGNTYLEWYLQKPGQSPKVLIYKVSNRFSGVPDRFSGSGSGTDFTLKITRVEAEDLGVYYCFQGSHVPYTFGGGTKLEIKR
# B2: 単鎖抗体MMP98−1 (scFv, V domains shown)
# VH: EVQLQQSGPELKKPGETVKISCKASGYPVTKYGMNWVKQAPGKGLKWMGWINTYTGEPTYTDDFKGRFAFSLETSANTAYLQINNLKDEDTATYFCANSHGKYVEWFTYWGQGTTVTVSS
# VL: DIELTQSPTTMAASPGEKITITCSASSSISSNYLHWYQQKPGFSPKLLIYRTSNLASGVPARFSGSGSGTSYSLTIGTMEAEDVATYYCQQGSSIPLTFGAGTKLELKR
# B3: 単鎖抗体MMPK9E−1 (scFv, V domains shown)
# VH: QIQLVQSGPELKKPGETVKISCKASGYTFTSYALHWVKQAPGKGLKWMGWKYTNTGEPTYGDDFKGRFAFSLETSASTAYLQINNLKNEDMATYFCARGGLSSYAMDYWGQGTSVTVSS
# VL: DIVMSQSPSSLAVSAGEKVTMSCKSSQSLLNSRTRKNYLAWYQQKPGQSPKLLIYWASTRESGVPDRFTGTGSGTDFTLTISSVQAEDLAVYYCKQSYNLLVTFGAGTKLELKR
# Key:
# [1] = molecular target: T1, MT1−MMPヒンジ領域ペプチドコンジュゲート (mouse, UniProt P02769 25-607 (bovine entry), C-terminal Cys coupled through the linker Sulfo-EMCS to the carrier protein); test: SPR, peptide 3-BSA complex immobilised, scFv as analyte
# T1 construct: peptide 3); also called ペプチド−BSA複合体; 固相化抗原
# [2] = molecular target: T2, 抗MT1−MMP抗体MMPK9I (ハイブリドーマ19Bが産生する抗体IgG); test: flow immunoassay: free hinge peptide (0.0-100 ng/mL) inhibits binding of Cy5-F(ab')2-labelled IgG MMPK9I to conjugate-coated polystyrene beads
# T2 construct: Mouse IgG from hybridoma 19B; Culture supernatant in the screening; in the flow immunoassay in complex with Cy5-labelled goat anti-mouse IgG F(ab')2; also called 抗体K9I
# T1 sequence (P02769 25-607 limits assumed): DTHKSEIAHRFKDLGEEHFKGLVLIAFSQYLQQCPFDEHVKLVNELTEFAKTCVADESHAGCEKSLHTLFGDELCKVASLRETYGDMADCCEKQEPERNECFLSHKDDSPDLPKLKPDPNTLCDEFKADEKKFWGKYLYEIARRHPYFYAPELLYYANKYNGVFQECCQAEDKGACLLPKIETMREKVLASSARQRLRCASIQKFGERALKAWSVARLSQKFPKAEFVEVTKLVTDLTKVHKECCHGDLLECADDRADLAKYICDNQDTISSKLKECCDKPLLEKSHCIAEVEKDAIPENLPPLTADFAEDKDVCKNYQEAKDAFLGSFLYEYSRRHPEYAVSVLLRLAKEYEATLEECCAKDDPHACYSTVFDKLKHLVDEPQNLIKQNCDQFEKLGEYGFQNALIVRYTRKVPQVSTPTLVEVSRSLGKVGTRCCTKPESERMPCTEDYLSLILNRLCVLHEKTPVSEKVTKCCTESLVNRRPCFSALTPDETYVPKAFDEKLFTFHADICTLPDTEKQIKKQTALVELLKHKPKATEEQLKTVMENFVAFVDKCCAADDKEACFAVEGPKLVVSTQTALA
Binder,Kd [1] [nM],IC50 [2] [ng/mL]
B1,~10,
B2,~10,
PQPRTTSRPSVPDKPKNC (also called MT1−MMPペプチド; 抗原ペプチド) [MT1−MMPヒンジ領域ペプチド],,~4.74
B3,~10,
